Consider 1 molecule from paper PMC4176161.

For experiment [1], the target named is T1, …3 (SEP3) (Arabidopsis thaliana), O22456.
T1 chain: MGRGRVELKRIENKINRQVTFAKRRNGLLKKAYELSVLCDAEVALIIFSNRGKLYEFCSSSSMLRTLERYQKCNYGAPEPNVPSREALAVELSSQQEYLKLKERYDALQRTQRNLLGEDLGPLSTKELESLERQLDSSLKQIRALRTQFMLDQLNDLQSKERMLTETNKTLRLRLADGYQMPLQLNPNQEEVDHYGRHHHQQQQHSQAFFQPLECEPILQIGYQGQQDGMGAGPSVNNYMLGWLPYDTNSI
Nature of the experiment: native gel or EMSA. The conditions noted are these: remark: other sources report otherwise. In general terms: A gel shift assay detects complexes by their altered migration in electrophoresis.

For experiment [2] the target is unchanged. Nature of the experiment: native gel or EMSA. To be noted: remark: other sources report otherwise.

B1: …3 (SEP3), O22456 1-251 (natural protein)
chain: MGRGRVELKRIENKINRQVTFAKRRNGLLKKAYELSVLCDAEVALIIFSNRGKLYEFCSSSSMLRTLERYQKCNYGAPEPNVPSREALAVELSSQQEYLKLKERYDALQRTQRNLLGEDLGPLSTKELESLERQLDSSLKQIRALRTQFMLDQLNDLQSKERMLTETNKTLRLRLADGYQMPLQLNPNQEEVDHYGRHHHQQQQHSQAFFQPLECEPILQIGYQGQQDGMGAGPSVNNYMLGWLPYDTNSI
The term stoichiometry N denotes the number of molecules, sites or subunits per partner or assembly. B1: the stoichiometry N in experiment [1] came out at 4; in experiment [2], 2.
